The results in this text go back to patent US20260234232A1 (QUAERITE BIOPHARM RESEARCH BEIJING, published 2026).

Changes are numbered by the printed parent chain.

B1: 2V31-9GS (VHH)
chain: QLQLVESGGGSVQPGGSLRLSCEVSGRTFASYTMGWFRQAPGKEREFVVAISKGGYKYDAVSLEARFTISKDNTKNTVYLQMNSLKPEDTAVYYCAGTRAYGSSRLRLAKTYEYWGQGTQVTVSSGGGGSGGGSQLQLVESGGGSVQPGGSLRLSCEVSGRTFASYTMGWFRQAPGKEREFVVAISKGGYKYDAVSLEARFTISKDNTKNTVYLQMNSLKPEDTAVYYCAGTRAYGSSRLRLAKTYEYWGQGTQVTVSS
notes: Tandem bivalent nanobody
B2: 2V43-9GS (VHH)
chain: B1 chain with A30T, A60S, K110N, A164T, A194S, K244N
notes: Tandem bivalent nanobody
B3: V1-V40 (bispecific antibody)
chain: B1 chain with A30S, A60S, G97A, K110D, A164T, D193N, G231A
B4: V1-V30 (bispecific antibody)
chain: B1 chain with A30S, A60S, G97A, K110D, A164S, E178G, G231A
B5: V1-V15 (bispecific antibody)
chain: B1 chain with A30S, A60S, G97A, K110D, A194S, K244E
B6: V15-V30 (bispecific antibody)
chain: B1 chain with A60S, K110E, A164S, E178G, G231A
B7: V15-V40 (bispecific antibody)
chain: B1 chain with A60S, K110E, A164T, D193N, G231A
B8: V30-V40 (bispecific antibody)
chain: B1 chain with A30S, E44G, G97A, A164T, D193N, G231A
B9: 2V1-DP-3GS (VHH)
chain: EVQLVESGGGLVQPGGSLRLSCAVSGRTFSSYTMGWFRQAPGKEREFVVAISKGGYKYDSVSLEARFTISRDNSKNTVYLQMNSLRPEDTAVYYCAATRAYGSSRLRLADTYEYWGQGTLVTVSSGGSEVQLVESGGGLVQPGGSLRLSCAVSGRTFSSYTMGWFRQAPGKEREFVVAISKGGYKYDSVSLEARFTISRDNSKNTVYLQMNSLRPEDTAVYYCAATRAYGSSRLRLADTYEYWGQGTLVTVSS
notes: Tandem bivalent humanized nanobody
B10: 2V1-SA1-3GS (VHH)
chain: B9 chain with S74A, S202A
notes: as for B9
B11: 2V43-1H-2m-3GS (VHH)
chain: B9 chain with V24A, D110N, V152A, D238N
notes: as for B9
B12: 2V15-4m-3GS (VHH)
chain: B9 chain with V24A, S30A, S74A, A97G, D110E, V152A, S158A, S202A, A225G, D238E
notes: as for B9
B13: 2V30-2H-2m-3GS (VHH)
chain: B9 chain with V24A, S60A, D110K, V152A, S188A, D238K
notes: as for B9
B14: 2V30-2H-2m-NL (VHH)
chain: EVQLVESGGGLVQPGGSLRLSCAASGRTFSSYTMGWFRQAPGKEREFVVAISKGGYKYDAVSLEARFTISRDNSKNTVYLQMNSLRPEDTAVYYCAATRAYGSSRLRLAKTYEYWGQGTLVTVSSEVQLVESGGGLVQPGGSLRLSCAASGRTFSSYTMGWFRQAPGKEREFVVAISKGGYKYDAVSLEARFTISRDNSKNTVYLQMNSLRPEDTAVYYCAATRAYGSSRLRLAKTYEYWGQGTLVTVSS
notes: as for B9
B15: 2V40-3H-2m-NL (VHH)
chain: B14 chain with D59N, D184N
notes: as for B9
B16: 2V15-4m-NL (VHH)
chain: B14 chain with S30A, A60S, S74A, A97G, K110E, S155A, A185S, S199A, A222G, K235E
notes: as for B9
B17: 2V13-4m-NL (VHH)
chain: B14 chain with S30T, S74A, A97G, K110D, S155T, S199A, A222G, K235D
notes: as for B9
B18: 2V1-DP-NL (VHH)
chain: B14 chain with A24V, A60S, K110D, A149V, A185S, K235D
notes: as for B9
B19: 2V1-SA1-NL (VHH)
chain: B14 chain with A24V, A60S, S74A, K110D, A149V, A185S, S199A, K235D
notes: as for B9
B20: 2V1-DP-9GS (VHH)
chain: EVQLVESGGGLVQPGGSLRLSCAVSGRTFSSYTMGWFRQAPGKEREFVVAISKGGYKYDSVSLEARFTISRDNSKNTVYLQMNSLRPEDTAVYYCAATRAYGSSRLRLADTYEYWGQGTLVTVSSGGGGSGGGSEVQLVESGGGLVQPGGSLRLSCAVSGRTFSSYTMGWFRQAPGKEREFVVAISKGGYKYDSVSLEARFTISRDNSKNTVYLQMNSLRPEDTAVYYCAATRAYGSSRLRLADTYEYWGQGTLVTVSS
notes: as for B9
B21: V1 (VHH)
VHH: QLQLVESGGGSVQPGGSLRLSCEVSGRTFSSYTMGWFRQAPGKEREFVVAISKGGYKYDSVSLEARFTISKDNTKNTVYLQMNSLKPEDTAVYYCAATRAYGSSRLRLADTYEYWGQGTQVTVSS
notes: Monovalent nanobody; tag not described here, the ELISA detects a His tag
B22: V31 (VHH)
VHH: B21 VHH with S30A, S60A, A97G, D110K
notes: as for B21
B23: 2V15-39GS (VHH)
chain: QLQLVESGGGSVQPGGSLRLSCEVSGRTFASYTMGWFRQAPGKEREFVVAISKGGYKYDSVSLEARFTISKDNTKNTVYLQMNSLKPEDTAVYYCAGTRAYGSSRLRLAETYEYWGQGTQVTVSSGGGGSGGGSGGGGSGGGGSGGGGSGGGGSGGGGSGGGGSQLQLVESGGGSVQPGGSLRLSCEVSGRTFASYTMGWFRQAPGKEREFVVAISKGGYKYDSVSLEARFTISKDNTKNTVYLQMNSLKPEDTAVYYCAGTRAYGSSRLRLAETYEYWGQGTQVTVSS
notes: Tandem bivalent nanobody
B24: V29 (VHH)
VHH: B21 VHH with A97G, D110N
notes: Monovalent nanobody; tag not described here
B25: V33 (VHH)
VHH: B21 VHH with D110K
notes: as for B24

T1 sequence (P15692 other isoform, or with tags, fused parts or gaps limits assumed): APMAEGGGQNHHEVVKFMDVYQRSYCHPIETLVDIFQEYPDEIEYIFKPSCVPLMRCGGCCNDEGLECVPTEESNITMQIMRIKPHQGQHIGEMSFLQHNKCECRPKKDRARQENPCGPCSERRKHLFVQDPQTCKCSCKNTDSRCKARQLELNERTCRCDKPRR

The first experiment concerns the target T1, human VEGFA165 (human, UniProt P15692-4 27-191).
T1 construct: Bought protein from two suppliers, treated as one molecule; the supplier is named under assay; also called antigen VEGFA
In words: ELISA, coated human VEGFA165, anti-His detection. How it is done:
(§1) Antigen human VEGFA165 (label-free, purchased from Sino Biological, Cat. No.: HPLC-10008-HNAH, hereinafter referred to as VEGFA) was diluted with ELISA coating buffer to a final concentration of 0.3 μg/mL and added to a microplate at 100 μL/well for coating at 4° C. overnight. […] The solution used for antibody dilution was PBS containing 0.1% Tween-20 (pH 7.4), i.e., PBST. After being incubated at 37° C. for 1 h, the microplate was washed 3 times with PBST, and a dilution of His-Tag murine monoclonal antibody (purchased from Proteintech, Cat. No.: 66005-1-Ig) was added. The plate was further incubated at 37° C. for 1 h and washed again. Subsequently, a dilution of HRP-labeled goat anti-mouse IgG antibody (HRP-conjugated Affinipure Goat Anti-Mouse IgG (H+L), purchased from Proteintech, Cat. No.: SA00001-1) was added, and the plate was incubated at room temperature for 45 min. After the plate was washed, 100 μL of TMB (purchased from Tiangen Biotech, Cat. No.: PA107-01) was added to each well for color development at 37° C. for 15 min, followed by the addition of 50 μL of stopping solution. The absorbance at 450 nm (OD450) was measured using a microplate reader.
B1 registered an EC50 of 0.31 nM.

Turning to B2, the response was half-maximal at 0.17 nM (EC50). Still for that read-out and setting: the same measure for B3: 0.42 nM. Still for that read-out and setting: with B4 the figure was 0.31 nM. Regarding B5, the midpoint of the response, the EC50, lay at 0.29 nM. B6 returned an EC50 of 0.41 nM. Same read-out and setting: the same measure for B7: 0.26 nM. Consider B8, for which the EC50 amounted to 0.31 nM.

A further experiment has as its target T1, human VEGFA165. Put plainly: ELISA, coated human VEGFA165, anti-His detection. The source holds these as a separate data set. How it is done:
as §1
The purified bivalent humanized nanobodies were evaluated for their VEGFA binding activity, and the experimental procedure was the same as that described in “2.
Regarding B9, the midpoint of the response, the EC50, lay at 0.27 nM. In other words, the sub-nanomolar range. On the same count and under the same terms, the same measure for B10: 0.26 nM.

On to B11, for which the EC50 came out at 1.19 nM. On the same count and under the same terms, the same measure for B12: 0.24 nM; for B13: 0.94 nM. In the case of B14, it took 0.81 nM to reach a half-maximal effect (EC50). The same measure, in the same setting: with B15 the figure was 0.26 nM; with B16, 0.19 nM. Regarding B17, the EC50 is 0.22 nM. The EC50 values of the last two molecules are within 1.5-fold of each other. The same measure, in the same setting: the same measure for B18: 0.2 nM; for B19: 0.28 nM; for B20: 0.23 nM.

Another experiment concerns the target T1, human VEGFA165. Put plainly: competitive ELISA, coated VEGFA, competitor VEGFR2-ECD-Fc 1 nM.
B3: the IC50 stood at 3.74 nM and the “Maximum inhibition rate (%)” value worked out at 88.5%. The corresponding values for B4 are 2.84 nM and 91.1%.

B5: the IC50 was 3.8 nM and the “Maximum inhibition rate (%)” value stood at 87.8%. The corresponding values for B6 are 3.22 nM and 91.2%. The like results for B7 were, in that order, 4.06 nM and 90.1%. B8: the IC50 came out at 3.32 nM and the “Maximum inhibition rate (%)” value is 89.8%.

Another experiment deals with T1, human VEGFA165. Put plainly: ELISA, coated human VEGFA165, anti-His detection. The source holds these as a separate data set. How it is done: as §1
The experimental procedure was the same as that described in “2.
In turn, B21 showed an EC50 of 0.52 nM.

In turn, B22 yielded an EC50 of 0.77 nM. Same read-out and setting: the same measure for B1: 0.31 nM. Still for that read-out and setting: with B2 the figure was 0.17 nM.

In a further experiment the target is T1, human VEGFA165. In words: ELISA, coated human VEGFA165, anti-His detection. This is another data set of the same source. How it is done: as §1
In the case of B23, the EC50 came out at 0.38 nM. This counts as sub-nanomolar.

The target in a further experiment is T1, human VEGFA165. In words: competitive ELISA, coated VEGFA, competitor VEGFR2-ECD-Fc 1 nM. The source holds these as a separate data set.
For the molecule B23, the IC50 was determined as 1.74 nM and the “Maximum inhibition rate (%)” value came to 94.5%.

The target in the next experiment is T1, human VEGFA165. Put plainly: SPR Biacore 8K, VEGFA165 on CM5, nanobody analyte, 1:1 fit. Here is the method:
Using the Biacore 8K instrument (Cytiva), the antigen VEGFA165 (label-free, purchased from Sino Biological, Cat. No.: HPLC-10008-HNAH) as the ligand was coupled onto a CM5 chip through amino-coupling reagents (EDC and NHS), with the coupling level being about 400 RU. The mobile phase buffer was HBS-EP (0.01 M HEPES pH 7.4, 0.15 M NaCl, 3 mM EDTA, 0.005% v/v Tween 20) during the experiment. […] In the kinetic analysis, the binding time between the antigen and the antibody was 240 s, the dissociation time was 1500 s, and the flow rate was 30 μL/min. In a multi-cycle mode, the chip was regenerated with 100 mM hydrochloric acid.
With B24, binding was put at a Kd of 0.653 nM, the koff came to 0.000154 s⁻¹ and the kon stood at 236000 M⁻¹ s⁻¹. The corresponding values for B25 are 0.719 nM, 0.000233 s⁻¹ and 324000 M⁻¹ s⁻¹.
